This data set has as its system MS2 coat protein. As to the kind of experiment: apparent KD of MS2 coat protein; designed switch direction (-1 OFF switch, 1 ON switch): 1; higher = weaker reporter binding. In short, it runs like this: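 Three titration conditions were used: no input, 200 uM small-molecule ligand, and an oligonucleotide input. In each, SNAP-549-labelled MS2 coat protein was raised from 0.7 or 1.5 nM, doubling, to 3 µM over designed RNA switches transcribed on Illumina chips by stalled E. coli RNA polymerase. Curve fits of normalised cluster fluorescence gave values whose per-design median over clusters is the apparent KD.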

The mark [1] stands for this setting: input ligand: microRNA oligo, concentration not stated.
[2] abbreviates: Eterna round: R95, input ligand: FMN 200 uM.
[3] abbreviates: Eterna round: R95, input ligand: microRNA oligo, concentration not stated.
[4] abbreviates: Eterna round: R95, input ligand: none.

Consider “GUAGCAUACCGAGGAUAUUCAUAACAUGAGGAUCACCCAUGUAUUAGGCCACAUUAGUGGCCUUGGGAGAAGGCGGAAUGCUAC [Xeonanis - 20 Mod45] (Eterna round: R96, puzzle: Same State NG 2)”, for which the “apparent KD of MS2 coat protein” value is, setting by setting: (input ligand: FMN 200 uM) 12.1 nM; under setting [1], 11.9 nM; (input ligand: none) 16.9 nM.
For the sequence “UUGGUGUAGAUACAGGAUAUGUUGCUUGUAACAUGAGGAUCACCCAUGUAUCUAUGAGAUUAAAUGCAGAAGGGUGCACAUCACU [salish99_ss2_r3_089] (puzzle: Same State 2)”, the “apparent KD of MS2 coat protein” value under setting [2] is 390 nM, the “apparent KD of MS2 coat protein” value under setting [3] was found to be 582 nM and the “apparent KD of MS2 coat protein” value under setting [4] amounted to 1020 nM.
Turning to “GGUAUCGGCACAGGAUAUGCUAUCCUUUGGGUAGCAGAAGGGUGGAACAUGAGGAUCACCCAUGUGGUGCCAGGGCGUGAGCCC [JL SSNG1 1.88] (Eterna round: R96, puzzle: Same State NG 1)”, the “apparent KD of MS2 coat protein” value is, setting by setting: (input ligand: FMN 200 uM) 586 nM; under setting [1], 125 nM; (input ligand: none) 909 nM.
Consider “GAGAAGAGGGACAAGGAUAUGUCAGGAGAGACAUGAGGAUCACCCAUGUAGAGGUUGGAGGAGAGACAGAAGGUGUCGAGAGCGA [JR_SS2_Sub014] (puzzle: Same State 2)”, for which the “apparent KD of MS2 coat protein” value was found to be 123 nM under setting [2], 143 nM under setting [3] and 361 nM under setting [4].
As for “GUGGUCAGACAUGAGGAUCACCCAUGUGGAAUAAAUAACAGACAGGAUAUUUAAUAUAGGAUAUAAAAGAAGGGUCGAUUGGUG (Eterna round: R96, puzzle: Same State NG 3)”, the “apparent KD of MS2 coat protein” value by setting is: (input ligand: FMN 200 uM) 110 nM; under setting [1], 98.9 nM; (input ligand: none) 116 nM.
The matching figures for “UUAUCUAUCCGAGGAUAUCCAUAUAAUUUACAUGAGGAUCACCCAUGUUAUUGGGAGUUUUUUUAGGAGAAGGCGGAUGUAGAU [JR_SSNG2_Sub052] (Eterna round: R96, puzzle: Same State NG 2)”: 82.5 nM, 79.2 nM and 107 nM.
Take “AGUCCAGCGAAAGCUGGACAAAAGCGUGUACAUGAGGAUCACCCAUGUUCAUGUACAAGCUUUUUGCUCGUCUUAAA [JL mod - D95 - 6] (puzzle: Sensor for hsa-mir-208a)”: the “apparent KD of MS2 coat protein” value is 30.7 nM under setting [2], 17.3 nM under setting [3] and 96.2 nM under setting [4].
In the case of “UAGUACAUGCUUUUUGUCUGUCUUAGAUAACAUGAGGAUCACCCAUGUAAGGUGAAAGUUAUAUAGUUUAUGAAUAU [JR_SHM208A_Sub058] (Eterna round: R96, puzzle: Sensor for hsa-mir-208a)”, the “apparent KD of MS2 coat protein” value (input ligand: FMN 200 uM) turned out to be 242 nM, the “apparent KD of MS2 coat protein” value under setting [1] came to 309 nM and the “apparent KD of MS2 coat protein” value (input ligand: none) was 241 nM.
The matching figures for “AUUAAUAAUGCAGGAUAUGAUUAACAUGAGGAUCACCCAUGUGGUGUUGUGAGUAAGGAGAGUGAUCAGAAGGGCAUUUUUUUU [JMF's solution 27] (Eterna round: R96, puzzle: Same State NG 2)”: 552 nM, 374 nM and 385 nM.
As for “AAAGGACAUGAGGAUCACCCAUGUAGAAAAUACACAGGAUAUCGUCAUAUCGAAUUAUAAUGAGAAGGGUGCAAAA [Vebeinlala] (puzzle: Same State 1)”, the “apparent KD of MS2 coat protein” value reads like this: under setting [2], 59.9 nM; under setting [3], 273 nM; under setting [4], 124 nM.
For the sequence “UUUCGAUAGAUAGGAUAUCACCUUACAUGAGGAUCACCCAUGUUGGCCGUGCUGGUUAUUCAUACUGAGAAGGAUCUUGAUGAC [JR_SSNG2_Sub004] (Eterna round: R96, puzzle: Same State NG 2)”, the “apparent KD of MS2 coat protein” value (input ligand: FMN 200 uM) stood at 39.4 nM, the “apparent KD of MS2 coat protein” value under setting [1] turned out to be 37 nM and the “apparent KD of MS2 coat protein” value (input ligand: none) amounted to 45 nM.
For “AACAAUCUAUCUGAGGAUAUCAUGAAAAAAACAUGAGGAUCACCCAUGUGCAGGAAAACUGCAUAUGAGAAGGCAGAUAGAUUGA [salish99_SS2_r3_001] (Eterna round: R96, puzzle: Same State 2)”, the “apparent KD of MS2 coat protein” value under setting [1] stood at 490 nM.
As to “GAGAGAGGAAGCGAGGAUAUCGUGUUAGGUACAUGAGGAUCACCCAUGUUGUAGGUAGAGGUAGGCGAGAAGGCGCAGGAGAGGU [JR_SS2_Sub095] (puzzle: Same State 2)”, the “apparent KD of MS2 coat protein” value runs as follows: under setting [2], 26.7 nM; under setting [3], 26.4 nM; under setting [4], 32.2 nM.
For “UAAGUCAUGUAAGGAUAUGCAGCCGAAACGGCUGCAGAAGGUACUAUAAUUACAUGAGGAUCACCCAUGUUAUAAAAUUUAAAU [Mat - Same State NG 1 - JL mod - D78] (Eterna round: R96, puzzle: Same State NG 1)”, the “apparent KD of MS2 coat protein” value was 24.1 nM (input ligand: FMN 200 uM), 43.2 nM under setting [1] and 60.7 nM (input ligand: none).
The like results for “AACAUGAGGAUCACCCAUGUGAAAUACUGAGGCAGCUCAGGGAAGGAUAUGGUUGACACCCUCGACCAGAAGGUCCAAAAUAAA [Aquorxe] (Eterna round: R96, puzzle: Same State NG 3)” were, in that order, 80.8 nM, 108 nM and 143 nM.
As to “ACUAUUUAUGCAGGAUAUGAUUAACAUGAGGAUCACCCAUGUGGUGUUGUGAGUAAGGAGAGUGAUCAGAAGGGCAUUUUUUUU [JMF's solution 75] (Eterna round: R96, puzzle: Same State NG 2)”, the “apparent KD of MS2 coat protein” value (input ligand: FMN 200 uM) came out at 518 nM, the “apparent KD of MS2 coat protein” value under setting [1] was found to be 297 nM and the “apparent KD of MS2 coat protein” value (input ligand: none) was found to be 359 nM.
Take “GUGGUCAGACAUGAGGAUCACCCAUGUGGAAUAAAUAACGUACAGGAUAUUGAAUAUAGGAUAUACAAGAAGGGUAGAUUGGUG (Eterna round: R96, puzzle: Same State NG 3)”: the “apparent KD of MS2 coat protein” value (input ligand: FMN 200 uM) stood at 167 nM, the “apparent KD of MS2 coat protein” value under setting [1] was 115 nM and the “apparent KD of MS2 coat protein” value (input ligand: none) turned out to be 127 nM.
For the sequence “AGCUAUUAAUCAGGAUAUGGUCACAUGAGGAUCACCCAUGUAUAGAUGAUUGAAUGUGGUCUACACUAGAAGGGAUUGCUAACA [SameState NG2 #58] (Eterna round: R96, puzzle: Same State NG 2)”, the “apparent KD of MS2 coat protein” value runs as follows: (input ligand: FMN 200 uM) 167 nM; under setting [1], 96.1 nM; (input ligand: none) 150 nM.
For the sequence “GGUAUGGACACAGGAUAUGCUUACGAAACGUAAGCAGAAGGGUGAACAUGAGGAUCACCCAUGUACGUACCAGGGCGUGAGCCC [JL SSNG1 1.76] (Eterna round: R96, puzzle: Same State NG 1)”, the “apparent KD of MS2 coat protein” value is 440 nM (input ligand: FMN 200 uM), 157 nM under setting [1] and 92.4 nM (input ligand: none).
On to “UGUUAGUAGACAGGAUAUUGAAUGUUAAGUAUUAACAUGAGGAUCACCCAUGUAUUAGAUUGGUACAAGAAGGGUCAAGUUUGU [JR_SSNG2_Sub012] (Eterna round: R96, puzzle: Same State NG 2)”, for which the “apparent KD of MS2 coat protein” value under setting [1] was 242 nM.
Regarding “CUCAACAACACAGGAUAUCCAGGGAAAAGAACUGGAGAAGGGUGACCAACAUGAGGAUCACCCAUGUGAUAGCUAGGCUGUCUG [Lararariso] (Eterna round: R96, puzzle: Same State NG 1)”, the “apparent KD of MS2 coat protein” value (input ligand: FMN 200 uM) stood at 24 nM, the “apparent KD of MS2 coat protein” value under setting [1] amounted to 191 nM and the “apparent KD of MS2 coat protein” value (input ligand: none) stood at 1300 nM.
With “UUUAGUAGCGGGCAGGAUAUGUAUUAAAAUACAUGAGGAUCACCCAUGUGCGGGUAUAACACCCGACAGAAGGGCCAAUCGCUAC [Laonerce - 8] (puzzle: Same State 2)”, the “apparent KD of MS2 coat protein” value under setting [2] came out at 22.3 nM, the “apparent KD of MS2 coat protein” value under setting [3] turned out to be 162 nM and the “apparent KD of MS2 coat protein” value under setting [4] worked out at 237 nM.
Consider “AUUAUGUAUGCAGGAUAUGAUUAACAUGAGGAUCACCCAUGUGGUGUUGUGAGUAAGGAGAGUGAUCAGAAGGGCAUUUUUUUU [JMF's solution 64] (Eterna round: R96, puzzle: Same State NG 2)”, for which the “apparent KD of MS2 coat protein” value was 555 nM (input ligand: FMN 200 uM), 333 nM under setting [1] and 381 nM (input ligand: none).
“GAGGGAUGAGCGUAGGAUAUAGGAGGAGUGACAUGAGGAUCACCCAUGUGGUAUGAGGGAGGAUUCUAGAAGGACGCGGUAGAAG [JR_SS2_Sub064] (puzzle: Same State 2)”: the “apparent KD of MS2 coat protein” value by setting is: under setting [2], 66.4 nM; under setting [3], 172 nM; under setting [4], 235 nM.
For the sequence “AAAAUGGCAUGUUACAUGAGGAUCACCCAUGUGCCGUCAACUGAGGAUAUGGUGCUGUAGAAGAAUCAGAAGGUAGUCAUUUAA [AK SSNG3-V2-27] (Eterna round: R96, puzzle: Same State NG 3)”, the “apparent KD of MS2 coat protein” value runs as follows: (input ligand: FMN 200 uM) 22.6 nM; under setting [1], 15.8 nM; (input ligand: none) 27 nM.
The matching figures for “GAAACAUGACGAGGAUAUGGAACAUGAGGAUCACCCAUGUAUGUUCCAUAACGCGAAUGACGAAUCCAGAAGGCGUCGUGAAAG [Mat - Same State NG 2 - JL mod - D28] (Eterna round: R96, puzzle: Same State NG 2)”: 33.6 nM, 177 nM and 233 nM.
With “GAGUGGAGGAGAGGAUAUACAAUGAUAAUCACAGUAGAAGGUUCUAACAUGAGGAUCACCCAUGUAGGACUAUUCCUGAGAGUU [Parity 50 - Jieux - Same State NG 1] (Eterna round: R96, puzzle: Same State NG 1)”, the “apparent KD of MS2 coat protein” value worked out at 10.8 nM (input ligand: FMN 200 uM), 9.56 nM under setting [1] and 12.8 nM (input ligand: none).
Consider “AUAUGAGCUAUGGAGGAUAUCCAUAACAAGACAUGAGGAUCACCCAUGUAAUCAAAACAAUAAUGGGAGAAGGCCAUAGCUCAAU [SS 2 M47] (Eterna round: R96, puzzle: Same State 2)”, for which the “apparent KD of MS2 coat protein” value under setting [1] is 46.9 nM.

The values are drawn from the supplement of paper PMC9170038.
